Molecular target: T1, LCAT (Homo sapiens, UniProt P04180)
T1 sequence (P04180 25-440): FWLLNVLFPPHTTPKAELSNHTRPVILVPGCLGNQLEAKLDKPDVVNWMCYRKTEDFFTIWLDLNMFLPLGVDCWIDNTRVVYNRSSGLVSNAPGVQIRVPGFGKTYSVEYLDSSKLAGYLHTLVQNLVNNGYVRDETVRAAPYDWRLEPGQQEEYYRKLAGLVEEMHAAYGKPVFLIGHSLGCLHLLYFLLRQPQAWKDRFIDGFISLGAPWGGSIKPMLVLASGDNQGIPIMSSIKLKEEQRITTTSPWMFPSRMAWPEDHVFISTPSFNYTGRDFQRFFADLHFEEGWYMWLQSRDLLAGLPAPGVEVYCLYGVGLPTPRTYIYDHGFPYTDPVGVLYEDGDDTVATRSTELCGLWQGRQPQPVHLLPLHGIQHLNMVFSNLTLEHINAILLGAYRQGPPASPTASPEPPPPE
Experiment: Assay of LCAT activity in plasma with HDL-mimetic substrate
Type: biochemical
Conditions: rhLCAT in buffer; 2 μL with 100 μL HMS (100 μM DHE), 2 hours

## rhLCAT: Recombinant human LCAT purified from the medium of a stably transfected HEK293F cell clone
  Slope of activity versus rhLCAT concentration: 5 nmol/µg/h
